Laboratory results from the Human Domainome abundance scans (Beltran et al. 2025).
± gives the uncertainty stated by the source.

B1: Gamma-crystallin S, residues 96 to 176; numbered along this chain, P22914 (parent)
chain: IQIFEKGDFSGQMYETTEDCPSIMEQFHMREIHSCKVLEGVWIFYELPNYRGRQYLLDKKEYRKPIDWGAASPAVQSFRRI

Variants of: B1
Assay: abundance fitness (aPCA) (normalised: wild type 0, dead -1); higher = more abundant; growth selection in yeast, the domain comes from the species named
Conditions: Homo sapiens

IQIFEKGDFSGQMYETTEDCPSIMEQFHMREIHSCKVLEGVWIFYELPNYRGRQYLLDKKEYRKPIDWGAASPAVQSFRRE [I81E] and IQIFEMGDFSGQMYETTEDCPSIMEQFHMREIHSCKVLEGVWIFYELPNYRGRQYLLDKKEYRKPIDWGAASPAVQSFRRI [K6M] are within error of each other in abundance fitness: 0.026 ± 0.14 for the first, 0.049 ± 0.087 for the second.

First: IQIFEEGDFSGQMYETTEDCPSIMEQFHMREIHSCKVLEGVWIFYELPNYRGRQYLLDKKEYRKPIDWGAASPAVQSFRRI [K6E]
Second: IQIFEKGDFSGQMYETTEDCPSIMEQFHMREIHSCKVLEGVWIFYEVPNYRGRQYLLDKKEYRKPIDWGAASPAVQSFRRI [L47V]
The abundance fitness of the first is higher: 0 ± 0.08 for the first, -0.667 ± 0.071 for the second.

IQIFEKGFFSGQMYETTEDCPSIMEQFHMREIHSCKVLEGVWIFYELPNYRGRQYLLDKKEYRKPIDWGAASPAVQSFRRI [D8F] and IQIFEKGAFSGQMYETTEDCPSIMEQFHMREIHSCKVLEGVWIFYELPNYRGRQYLLDKKEYRKPIDWGAASPAVQSFRRI [D8A] are within error of each other in abundance fitness: 0.066 ± 0.1 for the first, 0.038 ± 0.047 for the second.

IQIFEKGDFSGQMYETTEDCPSIMEQFHMREIHSCKVLEGVWIFYELPNYRGRQYLLDKREYRKPIDWGAASPAVQSFRRI [K60R] and IQIFEKGDFSGQMYETTEDCPSIMEQFHMREIHSCKVLEGVWIFYELPNYRGRQYLLDKSEYRKPIDWGAASPAVQSFRRI [K60S] are within error of each other in abundance fitness: -0.143 ± 0.14 for the first, 0.005 ± 0.13 for the second.

IQIFEKGDFSGQMYETTEDCPSIMEQFHMCEIHSCKVLEGVWIFYELPNYRGRQYLLDKKEYRKPIDWGAASPAVQSFRRI [R30C] and IQIFEKGDFSGQMYETTEDCPSIMEQFHMREIHSCKVLEGVWIFYELPNYRGRQYLADKKEYRKPIDWGAASPAVQSFRRI [L57A] are within error of each other in abundance fitness: 0.009 ± 0.058 for the first, -0.039 ± 0.16 for the second.

IQIFEKGDFSGQMYETTEDCPSIMEQFHMREIHSCKVLEGVWIFYELPNYRGRQYLRDKKEYRKPIDWGAASPAVQSFRRI [L57R] and IQIFEKGDFSGQMYETTEDCPSIMEQFHMREIHSCKVLEGVWIFYELPNYRGRQELLDKKEYRKPIDWGAASPAVQSFRRI [Y55E] are within error of each other in abundance fitness: -0.288 ± 0.11 for the first, -0.425 ± 0.37 for the second.

First: IQIFEKGDFSGQMYETTEDCPSIMEQFHMREIHQCKVLEGVWIFYELPNYRGRQYLLDKKEYRKPIDWGAASPAVQSFRRI [S34Q]
Second: IQIFEKGDFSGQMYETTEDCPSIMEQFHMREIHSCKVLEGVWIFYELPNYRGRQYLLDKKEYRKPIDWGAALPAVQSFRRI [S72L]
The abundance fitness of the first is lower: -0.485 ± 0.11 for the first, 0.002 ± 0.14 for the second.

IQIFEKGDFSGQMYETTEDCPSIMEQFHMREIHSCKVLTGVWIFYELPNYRGRQYLLDKKEYRKPIDWGAASPAVQSFRRI [E39T] and IQIFEKGDFSGQMYETFEDCPSIMEQFHMREIHSCKVLEGVWIFYELPNYRGRQYLLDKKEYRKPIDWGAASPAVQSFRRI [T17F] are within error of each other in abundance fitness: -0.012 ± 0.052 for the first, -0.007 ± 0.1 for the second.

IQIFEKGDFSGQMYETTEDCPSIMEQFHMREIHSCKVLEGVWIFYELPNYRGRQYLLDKKEYRKPIDWGAASPAVQSFARI [R79A] and IQIFEKGDFSGQRYETTEDCPSIMEQFHMREIHSCKVLEGVWIFYELPNYRGRQYLLDKKEYRKPIDWGAASPAVQSFRRI [M13R] are within error of each other in abundance fitness: 0.147 ± 0.37 for the first, -0.01 ± 0.028 for the second.

IQIFEKGDFSGQMYETTEDAPSIMEQFHMREIHSCKVLEGVWIFYELPNYRGRQYLLDKKEYRKPIDWGAASPAVQSFRRI [C20A] and IQIFEKGDFSGQMYETTEDKPSIMEQFHMREIHSCKVLEGVWIFYELPNYRGRQYLLDKKEYRKPIDWGAASPAVQSFRRI [C20K] are within error of each other in abundance fitness: -0.004 ± 0.057 for the first, -0.027 ± 0.072 for the second.

IQIFEKGDFSGQMYETTEDCPSIMEQFHMRESHSCKVLEGVWIFYELPNYRGRQYLLDKKEYRKPIDWGAASPAVQSFRRI [I32S] and IQIFEKGDFSGQMYETTEDCPSIMEQFHMREVHSCKVLEGVWIFYELPNYRGRQYLLDKKEYRKPIDWGAASPAVQSFRRI [I32V] are within error of each other in abundance fitness: -0.087 ± 0.063 for the first, -0.029 ± 0.063 for the second.

IQIFEKGDFSGQMYETTEDCPSIMEQFHMREIHSCKVLEGVWIFYELPEYRGRQYLLDKKEYRKPIDWGAASPAVQSFRRI [N49E] and IQIFEKGDFSGQMGETTEDCPSIMEQFHMREIHSCKVLEGVWIFYELPNYRGRQYLLDKKEYRKPIDWGAASPAVQSFRRI [Y14G] are within error of each other in abundance fitness: 0.021 ± 0.033 for the first, 0.028 ± 0.056 for the second.

First: IQIFEKGDFSGQMYETTEDCPSIMEQFHMREIHSCKVLEGVWIFYELPNYYGRQYLLDKKEYRKPIDWGAASPAVQSFRRI [R51Y]
Second: IQIFEKGDFSGQMYETTEDCPSIMEQFHMREIHSCKVLEGLWIFYELPNYRGRQYLLDKKEYRKPIDWGAASPAVQSFRRI [V41L]
The abundance fitness of the first is lower: -0.166 ± 0.12 for the first, 0.023 ± 0.053 for the second.

IQIFEKGDFSGQMYETTEDCPSIMEQFHMREIHSCKVLEGVWIFYELPNYRGRQYLLDKKEYRKPIDWGARSPAVQSFRRI [A71R] and IQIFEKGDFSGQMYETTEDCPSIMEQFHMREIHSCKVLEGVWIFYELPNYRGRKYLLDKKEYRKPIDWGAASPAVQSFRRI [Q54K] are within error of each other in abundance fitness: 0.007 ± 0.087 for the first, -0.07 ± 0.086 for the second.

Going from IQIFEKGDFSGQMYETTEDCPSIMEQFHMREIHSCKVLEGVWIFYELPNYRGRTYLLDKKEYRKPIDWGAASPAVQSFRRI [Q54T] to IQIFEKGDFSGQMYETTEDCPSIMEQFHMREIHSCKVLEGVWIFYELPNYRGRQYLLDKKEYRKPIDWCAASPAVQSFRRI [G69C], the abundance fitness falls from 0.044 ± 0.068 to -0.242 ± 0.21.

IQIFEKGDFSGQMYETTEDCPSIMEQFHMREIGSCKVLEGVWIFYELPNYRGRQYLLDKKEYRKPIDWGAASPAVQSFRRI [H33G] and IQIFEKGDFSGQMYETTEDCPSIMEQFHMREIFSCKVLEGVWIFYELPNYRGRQYLLDKKEYRKPIDWGAASPAVQSFRRI [H33F] are within error of each other in abundance fitness: 0.012 ± 0.033 for the first, 0.093 ± 0.094 for the second.

IQIFEKGDFSGQMYETTEDCPSIMEQFHMREIHSCKVLEGVWIFYELPNYRGRQYLLDKKHYRKPIDWGAASPAVQSFRRI [E61H] and IQIFEKGDFSGQMYETTEDCPSIMEQFHMREIHSCKVLEGVWIFYELNNYRGRQYLLDKKEYRKPIDWGAASPAVQSFRRI [P48N] are within error of each other in abundance fitness: -0.205 ± 0.44 for the first, -0.096 ± 0.17 for the second.
